Measured values taken from patent US20250250357A1 (NANJING ZAIMING PHARMACEUTICAL, published 2025).

Key:
[1] = biological target: T1, human MSLN-R2-his protein (human, UniProt Q13421 391-486); test: ELISA on coated antigen, antibody 1 nM
T1 construct: Self-made in HEK293E cells; also called human MSLN-R2 protein; hMSLN-R2-his; not shown: His tag

[2] = biological target: T2, human MSLN-R3-his protein (human, UniProt Q13421 487-598); test: ELISA on coated antigen, antibody 1 nM
T2 construct: Self-made in HEK293E cells; also called human MSLN-R3 protein; hMSLN-R3-his; not shown: His tag

[3] = biological target: T3, human MSLN-R3-3 polypeptide (human); test: ELISA on coated antigen, antibody 1 nM
T3 construct: also called human MSLN-R3-3 protein; hMSLN-R3-3
Procedure: (§1) The plate was sealed with a plastic film and incubated at 4° C. overnight. The next day, the plate was washed twice with PBST, and a blocking buffer [PBS+2% (w/w) BSA] was added for blocking at room temperature for 2 h. The blocking buffer was discarded, and a chimeric antibody or negative control antibody serially diluted from 100 nM was added at 50 μL/well. After incubation at 37° C. for 2 h, the plate was washed 3 times with PBST. […] After incubation at 37° C. for 2 h, the plate was washed 5 times with PBST. A TMB substrate was added at 50 μL/well for incubation at room temperature for 5-10 min, and then a stop solution (1.0 N HCl) was added at 50 μL/well.

[4] = biological target: T1, human MSLN-R2-his protein; test: ELISA on coated antigen, antibody 10 nM
Procedure: as §1

[5] = biological target: T2, human MSLN-R3-his protein; test: ELISA on coated antigen, antibody 10 nM
Procedure: as §1

[6] = biological target: T3, human MSLN-R3-3 polypeptide; test: ELISA on coated antigen, antibody 10 nM
Procedure: as §1

[7] = biological target: T1, human MSLN-R2-his protein; test: ELISA on coated antigen, antibody 0.1 nM
Procedure: as §1

[8] = biological target: T1, human MSLN-R2-his protein; test: ELISA on coated antigen, antibody 100 nM
Procedure: as §1

[9] = biological target: T2, human MSLN-R3-his protein; test: ELISA on coated antigen, antibody 0.1 nM
Procedure: as §1

[10] = biological target: T2, human MSLN-R3-his protein; test: ELISA on coated antigen, antibody 100 nM
Procedure: as §1

[11] = biological target: T3, human MSLN-R3-3 polypeptide; test: ELISA on coated antigen, antibody 0.1 nM
Procedure: as §1

[12] = biological target: T3, human MSLN-R3-3 polypeptide; test: ELISA on coated antigen, antibody 100 nM
Procedure: as §1

[13] = biological target: T1, human MSLN-R2-his protein; test: ELISA on coated antigen, antibody 0.01 nM
Procedure: as §1

[14] = biological target: T2, human MSLN-R3-his protein; test: ELISA on coated antigen, antibody 0.01 nM
Procedure: as §1

[15] = biological target: T3, human MSLN-R3-3 polypeptide; test: ELISA on coated antigen, antibody 0.01 nM
Procedure: as §1

[16] = biological target: T1, human MSLN-R2-his protein; test: ELISA on coated antigen, antibody 0.001 nM
Procedure: as §1

[17] = biological target: T2, human MSLN-R3-his protein; test: ELISA on coated antigen, antibody 0.001 nM
Procedure: as §1

[18] = biological target: T3, human MSLN-R3-3 polypeptide; test: ELISA on coated antigen, antibody 0.001 nM
Procedure: as §1

[19] = biological target: T1, human MSLN-R2-his protein; test: ELISA on coated antigen, antibody 0.0001 nM
Procedure: as §1

[20] = biological target: T2, human MSLN-R3-his protein; test: ELISA on coated antigen, antibody 0.0001 nM
Procedure: as §1

[21] = biological target: T3, human MSLN-R3-3 polypeptide; test: ELISA on coated antigen, antibody 0.0001 nM
Procedure: as §1

[22] = biological target: T1, human MSLN-R2-his protein; test: ELISA on coated antigen, no antibody (column none)
Procedure: as §1

[23] = biological target: T2, human MSLN-R3-his protein; test: ELISA on coated antigen, no antibody (column none)
Procedure: as §1

[24] = biological target: T3, human MSLN-R3-3 polypeptide; test: ELISA on coated antigen, no antibody (column none)
Procedure: as §1

T2 sequence (Q13421 495-606): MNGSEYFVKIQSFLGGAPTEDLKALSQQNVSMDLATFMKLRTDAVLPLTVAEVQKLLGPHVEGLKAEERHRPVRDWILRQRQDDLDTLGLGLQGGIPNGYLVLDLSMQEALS
T1 sequence (Q13421 other isoform, or with tags, fused parts or gaps): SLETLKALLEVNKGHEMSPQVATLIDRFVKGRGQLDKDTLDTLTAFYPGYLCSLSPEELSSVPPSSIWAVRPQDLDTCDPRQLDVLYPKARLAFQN

Row | Binder | OD450 [1] | OD450 [2] | OD450 [3] | OD450 [4] | OD450 [5] | OD450 [6] | OD450 [7] | OD450 [8] | OD450 [9] | OD450 [10] | OD450 [11] | OD450 [12] | OD450 [13] | OD450 [14] | OD450 [15] | OD450 [16] | OD450 [17] | OD450 [18] | OD450 [19] | OD450 [20] | other results
1 | S009-F2.21.4 (antibody, human IgG1, kappa, V domains shown, Human-murine chimeric antibody: murine VH/VL on human IgG1 heavy and kappa light constant regions) VH: EVQLQQSGPELVKPGASVKIPCKASGYTFTDYNMDWVKQSHGKSLEWIGDINPNNGGSIYNQRFKGKATLTVDKSSSTAYMELRSLTSEDSAVYYCARRAYYSTGYFDVWGTGTTVTVSS VL: QIVLTQSPALMSASPGEKVTITCSASSSISYMHWFQQKPGTSPKLWIYSTSTLASGVPARFSGSGSGTSYSLTISRMEAEDTATYYCQQRSSYPPTFGGGTKLEIKR | 0.05 OD450 | 0.05 OD450 | 0.05 OD450 | 0.05 OD450 | 0.05 OD450 | 0.05 OD450 | 0.05 OD450 | 0.06 OD450 | 0.05 OD450 | 0.06 OD450 | 0.05 OD450 | 0.05 OD450 | 0.05 OD450 | 0.05 OD450 | 0.05 OD450 | 0.05 OD450 | 0.05 OD450 | 0.05 OD450 | 0.05 OD450 | 0.05 OD450 | OD450 [21]: 0.05 OD450; OD450 [22]: 0.06 OD450; OD450 [23]: 0.06 OD450; OD450 [24]: 0.05 OD450
2 | S009-F2.38.12 (antibody, human IgG1, kappa, V domains shown, Human-murine chimeric antibody: murine VH/VL on human IgG1 heavy and kappa light constant regions) VH: QVQLQQPGTELVKPGASVKLSCKASGYTFTSYWMHWVKQRPGQGLEWIGNINPSNGGTNYNEKIKNKATLTVDKSSSTAYMQLSSLTSEDSAVYYCARWNYYGNYPFDYWGQGTTLTVSS VL: DIVMTQSQKFMSTTVGDRVSITCKASQNVGTAVAWYQQKPGQSPKLLIYSASNRYTGVPDRFTGSGSGTDFTLTISNMQSEDLADYFCQQYSSYPLTFGAGTKLELKR | 0.05 OD450 | 0.05 OD450 | 0.05 OD450 | 0.05 OD450 | 0.05 OD450 | 0.05 OD450 | 0.05 OD450 | 0.06 OD450 | 0.05 OD450 | 0.06 OD450 | 0.05 OD450 | 0.06 OD450 | 0.05 OD450 | 0.04 OD450 | 0.05 OD450 | 0.05 OD450 | 0.05 OD450 | 0.05 OD450 | 0.05 OD450 | 0.05 OD450 | OD450 [21]: 0.05 OD450; OD450 [22]: 0.06 OD450; OD450 [23]: 0.05 OD450; OD450 [24]: 0.05 OD450
3 | S009-F2.47.1 (antibody, human IgG1, kappa, V domains shown, Human-murine chimeric antibody: murine VH/VL on human IgG1 heavy and kappa light constant regions) VH: QVQLQQPGAELVKPGASVKLSCKASGYTFTSYWMHWVKQRPGQGLEWIGMIHPNSGSTNYNEKFKSKATLTVDKSSSTAYMQLSSLTSEDSAVYYCARPVVPYWYFDVWGTGTTVTVSS VL: DIVMTQSQKFMSTTVGDRVSITCKASQNVGTAVAWYQQKPGQSPKLLIYSASNRYTGVPDRFTGSGSGTDFTLTISNMQSEDLADYFCQQSSSYPLTFGAGTKLELKR | 0.05 OD450 | 0.05 OD450 | 0.05 OD450 | 0.05 OD450 | 0.05 OD450 | 0.06 OD450 | 0.05 OD450 | 0.06 OD450 | 0.05 OD450 | 0.06 OD450 | 0.06 OD450 | 0.06 OD450 | 0.05 OD450 | 0.05 OD450 | 0.05 OD450 | 0.05 OD450 | 0.05 OD450 | 0.06 OD450 | 0.05 OD450 | 0.05 OD450 | OD450 [21]: 0.05 OD450; OD450 [22]: 0.06 OD450; OD450 [23]: 0.05 OD450; OD450 [24]: 0.06 OD450
4 | S009-F2.39.3 (antibody, human IgG1, kappa, V domains shown, Human-murine chimeric antibody: murine VH/VL on human IgG1 heavy and kappa light constant regions) VH: QVQLQQPGTELVKPGASVKLSCKASGYTFTNYWMHWVKQRPGQGLEWIGNINPSSGDSYYNERFMSKAKMTVDKSSSTAYMQLSSLTSEDSAVYYCARSGGLWLAFWGPGTLVTVSA VL: DIVMTQSPSSLAMSVGQKVTMSCKSSQTLLNSVSQNNYLAWYQQKPGQSPTLLVYFASTRESGVPDRFIGGGSGTDFTLTISSVQAEDLADYFCQQHYRTPYTFGGGTNLEIKR | 0.05 OD450 | 0.25 OD450 | 0.05 OD450 | 0.05 OD450 | 0.98 OD450 | 0.05 OD450 | 0.05 OD450 | 0.06 OD450 | 0.07 OD450 | 1.84 OD450 | 0.05 OD450 | 0.05 OD450 | 0.05 OD450 | 0.05 OD450 | 0.05 OD450 | 0.05 OD450 | 0.05 OD450 | 0.05 OD450 | 0.05 OD450 | 0.05 OD450 | OD450 [21]: 0.05 OD450; OD450 [22]: 0.06 OD450; OD450 [23]: 0.05 OD450; OD450 [24]: 0.05 OD450
5 | S009-F2.16.10 (antibody, human IgG1, kappa, V domains shown, Human-murine chimeric antibody: murine VH/VL on human IgG1 heavy and kappa light constant regions) VH: QVQLQQPGAELIKPGASVKLSCKASGYTFTSYWMHWVKQRPGQGLEWIGIIHPNIGSTNYNERFKSKATLTVDKSSSTAYMQLSSLTSEDSAVYYCARRSSNYGDWYFDVWGTGTTVTVSS VL: DIVMTQSHRFMSTSVGDRVSITCKASQDVGTSVAWYQQKPGQSPKLLIYWASTQHTGVPDRFTGSGSGTDFTLTINNVQSEDLLDYFCQQYSSYPLTFGAGTKLELKR | 0.05 OD450 | 0.05 OD450 | 0.05 OD450 | 0.05 OD450 | 0.05 OD450 | 0.05 OD450 | 0.05 OD450 | 0.05 OD450 | 0.05 OD450 | 0.06 OD450 | 0.05 OD450 | 0.05 OD450 | 0.05 OD450 | 0.05 OD450 | 0.05 OD450 | 0.05 OD450 | 0.05 OD450 | 0.05 OD450 | 0.05 OD450 | 0.05 OD450 | OD450 [21]: 0.05 OD450; OD450 [22]: 0.06 OD450; OD450 [23]: 0.06 OD450; OD450 [24]: 0.05 OD450
6 | S009-F2.17.3 (antibody, human IgG1, kappa, V domains shown, Human-murine chimeric antibody: murine VH/VL on human IgG1 heavy and kappa light constant regions) VH: QVQLQQPGTELVTPGASVKLSCKASGYSFTSYWMHWVKQRPGQGLEWIGNINPSNGDTFYNEKFKNKATLTVDKSSSTAYMQLSSLTSEDSAVYYCARGWLRDYWGQGTTLTVSS VL: not shown | 0.05 OD450 | 0.29 OD450 | 0.05 OD450 | 0.05 OD450 | 1.19 OD450 | 0.05 OD450 | 0.05 OD450 | 0.06 OD450 | 0.07 OD450 | 2.3 OD450 | 0.05 OD450 | 0.05 OD450 | 0.05 OD450 | 0.05 OD450 | 0.05 OD450 | 0.05 OD450 | 0.05 OD450 | 0.05 OD450 | 0.05 OD450 | 0.05 OD450 | OD450 [21]: 0.05 OD450; OD450 [22]: 0.06 OD450; OD450 [23]: 0.06 OD450; OD450 [24]: 0.05 OD450
7 | S009-F2.23.12 (antibody, human IgG1, kappa, V domains shown, Human-murine chimeric antibody: murine VH/VL on human IgG1 heavy and kappa light constant regions) VH: QVQLQQPGTELVKPGASVKLSCKASGYTFTNYWMHWVKQRPGQGLEWIGNINPSNGGPYYNERFRSKATLTVDKSSSTAYMQLSSLTSEDSAVYYCARPYYGSSYGYFDYWGQGTTLTVSS VL: DIQMTQSPSSLSASLGGKVTITCKASQDINKYIAWYQHKPGKGPRLLIHYTSELQPGIPSRFSGNGSGRDYSFSISNLEPEDIATYYCLQYANPLRTFGGGTKLEIKR | 0.05 OD450 | 0.3 OD450 | 0.05 OD450 | 0.05 OD450 | 1.4 OD450 | 0.05 OD450 | 0.05 OD450 | 0.06 OD450 | 0.09 OD450 | 2.08 OD450 | 0.05 OD450 | 0.06 OD450 | 0.05 OD450 | 0.05 OD450 | 0.05 OD450 | 0.05 OD450 | 0.05 OD450 | 0.05 OD450 | 0.05 OD450 | 0.05 OD450 | OD450 [21]: 0.05 OD450; OD450 [22]: 0.06 OD450; OD450 [23]: 0.06 OD450; OD450 [24]: 0.05 OD450
